Patent US20220298255A1 (SEATTLE CHILDREN S HOSPITAL D B A SEATTLE CHILDREN S …, published 2022)

T1: mouse E-cadherin on cells (endogenous on 4T1 and Py2T cells; expressed in colo205 cells) (mouse, UniProt P09803 157-884)
T1 construct: whole, on cells; also called endogenous mouse E-cadherin; mE-cadherin
T1 sequence (looked up): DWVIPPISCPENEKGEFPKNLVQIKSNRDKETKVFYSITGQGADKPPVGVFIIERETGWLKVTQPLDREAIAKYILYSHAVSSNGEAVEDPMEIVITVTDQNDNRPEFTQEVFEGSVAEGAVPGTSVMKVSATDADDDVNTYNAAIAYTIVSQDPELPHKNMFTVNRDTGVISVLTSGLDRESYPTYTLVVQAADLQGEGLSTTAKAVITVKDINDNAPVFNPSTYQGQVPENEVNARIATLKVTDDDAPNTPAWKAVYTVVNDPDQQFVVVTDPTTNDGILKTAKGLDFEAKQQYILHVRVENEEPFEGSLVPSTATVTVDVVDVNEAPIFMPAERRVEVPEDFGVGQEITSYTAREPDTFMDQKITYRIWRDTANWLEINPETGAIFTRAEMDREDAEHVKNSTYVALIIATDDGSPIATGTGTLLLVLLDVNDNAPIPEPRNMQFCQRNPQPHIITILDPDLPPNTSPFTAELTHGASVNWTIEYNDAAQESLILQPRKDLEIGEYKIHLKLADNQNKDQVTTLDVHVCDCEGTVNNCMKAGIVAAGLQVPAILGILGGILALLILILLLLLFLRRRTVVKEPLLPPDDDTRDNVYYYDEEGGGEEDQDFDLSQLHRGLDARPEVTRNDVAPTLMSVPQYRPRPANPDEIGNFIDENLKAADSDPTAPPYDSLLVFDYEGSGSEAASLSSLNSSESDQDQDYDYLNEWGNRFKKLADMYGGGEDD

T2: mouse E-cadherin (form in the assay not stated) (mouse, UniProt P09803 157-709, limits assumed)
T2 construct: neither place states the form; also called the mouse E-cadherin
T2 sequence (looked up): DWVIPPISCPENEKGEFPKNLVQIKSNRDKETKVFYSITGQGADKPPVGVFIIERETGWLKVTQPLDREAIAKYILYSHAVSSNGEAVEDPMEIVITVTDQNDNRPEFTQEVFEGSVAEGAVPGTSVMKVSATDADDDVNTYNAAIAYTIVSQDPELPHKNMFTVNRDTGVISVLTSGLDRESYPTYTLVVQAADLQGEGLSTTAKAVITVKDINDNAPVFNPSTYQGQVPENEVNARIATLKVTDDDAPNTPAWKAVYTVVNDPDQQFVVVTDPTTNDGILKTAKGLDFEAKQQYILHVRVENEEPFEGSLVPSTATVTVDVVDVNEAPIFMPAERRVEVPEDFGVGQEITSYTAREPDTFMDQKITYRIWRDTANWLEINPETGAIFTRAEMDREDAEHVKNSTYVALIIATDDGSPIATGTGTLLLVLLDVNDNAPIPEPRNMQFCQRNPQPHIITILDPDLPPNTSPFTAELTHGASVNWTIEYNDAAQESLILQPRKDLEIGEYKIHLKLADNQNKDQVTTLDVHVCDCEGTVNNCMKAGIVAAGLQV


Legend:
[1] = target: T1, mouse E-cadherin on cells (endogenous …); test: immunofluorescence staining of parental 4T1 cells, antibody at 1 µg/mL for 7 hrs
[2] = target: T2, mouse E-cadherin (form in the assay not …); test: ELISA of hybridomas
[3] = target: T2, mouse E-cadherin (form in the assay not …); test: not described

| Binder | binding result [1] | binding result [2] | binding result [3] |
| --- | --- | --- | --- |
| rabbit anti-mouse E-cad monoclonal antibody mAb-2_18-5 (antibody, mouse IgG1, V domains shown, also called Whole IgG 18.5) VH: EQLEESGGGLVKPGASLTLTCTASGFDLSTYFYMCWVRQAPGKGLEWIACIYVGSTGDTYYANWAKGRFTISKTSSTTVTLQMTSLTDADTATYFCARDIFATGINYYRALWGPGTLVTVSS VL: AFELTQTPASVEAGVGGTVTIKCQASESINSWLSWYQQKPGQPPTLLIYSASTLASGVPSRFKGSRSGTQFTLTISDLECADAATYYCQSYYGTSTTAFGGGTEVVVK | binds | binds |  |
| mouse anti-human E-cad monoclonal antibody mAB-1_19A11 (antibody, V domains shown, also called mAb 19A11) VH: QVQLKESGPGLVAPSQSLSITCTVSGFSLSRYGVHWVRQPPGKGLEWLGMMWGGGNTDYNSALKSRLSISKDNSKSQVFLKMNSLQTDDTAMYYCASSNYVLGYAMDYWGQGTSVTVSS VL: DIVMTQSPSSLAMSVGQKVTMNCKSSQSLLNSSNQKNYLAWYQQKPGQSPKLLIYFTSTRGSGVPDRFIGSGSGTDFTLTISSVEAEDLADYFCQQHYRTPHTFGGGTKVEIK |  |  | no binding |
